Experiment [1] concerns the target T1, A2AR (Homo sapiens, UniProt P29274). The experiment is described as follows: T cell activation assay (PBMCs, NECA, anti-CD3ε/CD28 beads, IFN-γ release). The format is cell-based. Set-up: endogenous in cells; host or cells: PBMCs. The conditions noted are these: for T cell activation: NECA 1 μM, IFN-γ release. On the procedure:
The cells were then activated by magnetic beads coating with anti-CD3ε/CD28 antibodies. Three days after incubation, the supernatant was collected for detecting IFN-γ release and evaluating T cell activation. ZM-241385 is potent and used as a selective small molecule A2A antagonist control.
A primary T-cell activation assay was performed as described above. Data is seen in FIG. 33D and Table 21.

Experiment [2] deals with human colon carcinoma (Colo205). Briefly: In vivo colon carcinoma model, tumor volume. The conditions noted are these: mice with Colo205, tumor volume over 30 days. The procedure:
Mice with human colon carcinoma (Colo205) were divided into 4 groups. Group 1 was the isotype control, Group 2 mice were treated with Anti-PD1, Group 3 mice were treated with variant A2A-77 and Group 4 mice were treated with variant A2A-81. Tumor volume is measured over 30 days. Results are depicted in FIGS. 34A-34D.
Additional studies were performed with mice treated with 10 mg/kg variant A2A-51 (Group 5), A2A-28 (Group 6), Ab7/PD1TAO15 (Group 7), and AZD4635 (Group 8). Mice were also treated with 20 mg/kg according to the schedule in FIG. 34E. Data is seen in FIGS. 34F-34K.

For experiment [3], the target named is T1, A2AR. Briefly: A2AR cell functional cAMP assays (allosteric and antagonistic). The conditions noted are these: NECA titration, IgG titration (NECA 0.5 uM), IgG titration (NECA 10 uM). A general note: cAMP levels reflect the balance of adenylyl cyclase and phosphodiesterase activity.
Experimental: Allosteric and Antagonistic cAMP Assays were Performed Using A2A Cell Lines
The target of a further experiment is T2, A2b (Homo sapiens, UniProt P29275).
T2 construct: expressed in transfected cells; host or cells: CHO-K1
T2 sequence (P29275 1-332): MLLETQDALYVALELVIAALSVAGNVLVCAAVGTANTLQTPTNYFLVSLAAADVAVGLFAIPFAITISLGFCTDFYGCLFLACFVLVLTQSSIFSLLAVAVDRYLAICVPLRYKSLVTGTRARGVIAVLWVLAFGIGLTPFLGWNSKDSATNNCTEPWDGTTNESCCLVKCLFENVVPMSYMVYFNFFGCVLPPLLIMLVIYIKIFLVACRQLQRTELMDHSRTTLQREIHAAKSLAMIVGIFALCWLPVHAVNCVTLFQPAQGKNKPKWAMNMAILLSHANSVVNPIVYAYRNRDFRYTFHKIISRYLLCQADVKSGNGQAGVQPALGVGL
Briefly: A2b functional antagonistic cAMP assay (CHO-K1 cells). The format is cell-based. The conditions noted are these: IgG 3× titration from 1000 nM, NECA 5 nM. On the procedure:
FIG. 46 depicts the functional cAMP assay performed on selected A2b antibodies. CHO-K1 cells were incubated with an A2b antibody. Next, the cells were stimulated using NECA. Activation of A2b was monitored based on 3′-5′-cyclic adenosine monophosphate (cAMP) production in the cell lines.
First, cells were pre-incubated with A2A-17, A2A-19, A2A-26, A2A-27, A2A-35, A2A-36, and A2A-83 at a 3× titration starting at 100 nM. […] The results are depicted in FIGS. 47B-47C.
An antagonistic cAMP assay at high levels of IgC and low ligand levels was performed. Cells were pre-incubated with A2A-17, A2A-19, A2A-26, A2A-27, A2A-35, A2A-36, A2A-83, and A2A-72 at a 3× titration starting at 1000 nM. […] The results are depicted in FIG. 47D. […] Properties of A2b are depicted in Table 23.

The values below come from patent US12202905B2, “Methods and compositions relating to adenosine receptors” (Twist Bioscience Corporation, priority 2021, dated 2025).

Where a chain is given by its changes, count along the chain named. In names and notes the source's numbering stands.

T1 sequence (P29274 whole entry): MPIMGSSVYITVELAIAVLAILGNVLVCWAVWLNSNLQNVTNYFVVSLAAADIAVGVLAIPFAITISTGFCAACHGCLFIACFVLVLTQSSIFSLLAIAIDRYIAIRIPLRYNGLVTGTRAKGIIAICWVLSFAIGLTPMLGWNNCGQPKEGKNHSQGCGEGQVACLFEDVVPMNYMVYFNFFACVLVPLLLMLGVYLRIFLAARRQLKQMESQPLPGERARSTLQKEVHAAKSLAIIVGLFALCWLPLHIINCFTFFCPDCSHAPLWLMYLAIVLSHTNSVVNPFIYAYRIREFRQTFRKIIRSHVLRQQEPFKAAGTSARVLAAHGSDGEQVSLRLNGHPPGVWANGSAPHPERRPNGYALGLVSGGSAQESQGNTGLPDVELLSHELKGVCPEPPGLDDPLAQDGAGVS

B1: A2A-31: A2AR variant; VH CDR1-3 SEQ ID NO 36/125/214 (antibody, V domains shown)
VH: EVQLVESGGGLVKPGGSLRLSCAASGYLFTDYNMNWVRQAPGKGLEWVGWIYPGTGNTYNDSVKGRFTISRDNSKNTLYLQMNSLRAEDTAVYYCTALYYGSSWERYFDVWGQGTLVTVSS
VL: DIQMTQSPSSLSASVGDRVTITCRASQSISDYLNWYQQKPGKAPKLLIYGASPRESGVPSRFSGSGSGTDFTLTISSLQPEDFATYYCQQDNIWPYTFGQGTKLEIK
B1: the “T cell activation” value with A2AR [1] was “T cell activation was observed”.

B2: A2A-53: A2AR variant; VH CDR1-3 SEQ ID NO 58/147/236 (antibody, V domains shown)
VH: EVQLVESGGGLVKPGGSLRLSCAASGFNIIDDYMHWVRQAPGKGLEWVGMITDTGEPTDADSVKGRFTISRDNSKNTLYLQMNSLRAEDTAVYYCVYDYIYAMDYWGQGTLVTVSS
VL: DIQMTQSPSSLSASVGDRVTITCKASQNMGSNVAWYQQKPGKAPKLLIYSASHRSSGVPSRFSGSGSGTDFTLTISSLQPEDFATYYCQQWNYPRITFGQGTKLEIK
With B2, the “T cell activation” value with A2AR [1] is on record as “T cell activation was observed”.

B3: A2A-51: A2AR variant; VH CDR1-3 SEQ ID NO 56/145/234 (antibody, V domains shown)
VH: EVQLVESGGGLVKPGGSLRLSCAASGYTFNDYYINWVRQAPGKGLEWVGDINPNNGANIYNDSVKGRFTISRDNSKNTLYLQMNSLRAEDTAVYYCARNYGSSYYALDYWGQGTLVTVSS
VL: DIQMTQSPSSLSASVGDRVTITCSASSSLSYMHWYQQKPGKAPKLLIYGASPRESGVPSRFSGSGSGTDFTLTISSLQPEDFATYYCRQMSSYPPTFGQGTKLEIK
Consider B3, for which the “T cell activation” value with A2AR [1] is reported as “T cell activation was observed”. Further, the “T cell activation with more (high) NECA” value with A2AR [1] (high NECA) is given as “still works well”. For the same molecule, the “tumor size / tumor volume” value in experiment [2] was “ability to reduce tumor volume”.

B4: A2A-17: A2AR variant; VH CDR1-3 SEQ ID NO 22/111/200 (antibody, V domains shown)
VH: EVQLVESGGGLVKPGGSLRLSCAASGFNIGNTYMHWFRQAPGKGLEWVGVINPNYGTTRYNDSVKGRFTISRDNSKNTLYLQMNSLRAEDTAVYYCARDYGSSSFDYWGQGTLVTVSS
VL: DIQMTQSPSSLSASVGDRVTITCKASQSVRNDVVWYQQKPGKAPKLLIYRGNTLRPGVPSRFSGSGSGTDFTLTISSLQPEDFATYYCQQYYGIPLTFGQGTKLEIK
For B4, the “function in cAMP assays” value with A2AR [3] is “improved function”.

B5: A2A-24: A2AR variant; VH CDR1-3 SEQ ID NO 29/118/207 (antibody, V domains shown)
VH: B4 VH
VL: B4 VL
Consider B5, for which the “function in cAMP assays” value with A2AR [3] is “improved function”.

B6: A2A-19: A2AR variant; VH CDR1-3 SEQ ID NO 24/113/202 (antibody, V domains shown)
VH: EVQLVESGGGLVKPGGSLRLSCAASGFTFSGYAMNWVRQAPGKGLEWVSTISGSGASTYYADSVKGRFTISRDNSKNTLYLQMNSLRAEDTAVYYCAAARGYKRWRLGRRYDYWGQGTLVTVSS
VL: DIQMTQSPSSLSASVGDRVTITCRASQSISDYLNWYQQKPGKAPKLLIYTASTLQSGVPSRFSGSGSGTDFTLTISSLQPEDFATYYCEQSYSTPWTFGGGTKLEIK
For B6, in the experiment with A2AR [3], the “function in cAMP assays” value is given as “improved function”.

B7: A2A-27: A2AR variant; VH CDR1-3 SEQ ID NO 32/121/210 (antibody, V domains shown)
VH: B6 VH with G31S, N35A, T50A, A56G, Y60F, K103W, G108W
VL: B6 VL with S30G, D31S, T50G, T53N, E89Q, S91G, T94A, W96R
Consider B7, for which, in the experiment with A2b, the “A2a/A2b antagonist properties” value is “A2a antagonist that cross links with A2b, while also being an A2b antagonist”. Moreover, the “function in cAMP assays” value in the experiment with A2AR [3] is given as “improved function”.

B8: A2A-26: A2AR variant; VH CDR1-3 SEQ ID NO 31/120/209 (antibody, V domains shown)
VH: B6 VH with V5L, K13Q, G31T, N35G, T50G, G55A, A56G, Y102H, K103W
VL: B6 VL with S28T, D31R, T50S, E89Q, W96H, L104V
Consider B8, for which the “function in cAMP assays” value in the experiment with A2AR [3] was “improved function”.
